Reference: US20210032313A1 (Daiichi Sankyo, published 2021)
Changes are numbered by the printed parent chain.

T1: human KLK5 (human, UniProt Q9Y337 67-293)
T1 construct: also called hKLK5; active KLK5; not shown: C-terminal tag with His tag, encoded by primers 3/4
T1 sequence: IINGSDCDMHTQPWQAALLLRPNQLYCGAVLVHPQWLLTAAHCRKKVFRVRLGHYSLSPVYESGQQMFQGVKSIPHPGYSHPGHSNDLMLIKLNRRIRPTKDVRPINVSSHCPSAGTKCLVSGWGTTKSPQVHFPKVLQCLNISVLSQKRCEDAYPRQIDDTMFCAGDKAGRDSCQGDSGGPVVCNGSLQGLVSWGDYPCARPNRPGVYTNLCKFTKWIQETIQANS

T2: KLK8 (human, UniProt O60259)
T2 construct: prepared by the inventors; 5 nM in the assay; substrate Boc-Val-Pro-Arg-AMC 100 µM; also called Human KLK8; hKLK8
T2 sequence (protease, looked up): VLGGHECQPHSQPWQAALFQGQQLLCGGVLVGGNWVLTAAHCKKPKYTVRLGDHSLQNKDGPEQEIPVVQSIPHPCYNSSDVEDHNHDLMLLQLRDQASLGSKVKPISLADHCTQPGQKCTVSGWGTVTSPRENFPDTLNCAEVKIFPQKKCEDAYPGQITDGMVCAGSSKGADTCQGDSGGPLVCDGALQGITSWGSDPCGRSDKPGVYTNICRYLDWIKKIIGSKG

T3: mouse KLK5 (mouse)
T3 chain: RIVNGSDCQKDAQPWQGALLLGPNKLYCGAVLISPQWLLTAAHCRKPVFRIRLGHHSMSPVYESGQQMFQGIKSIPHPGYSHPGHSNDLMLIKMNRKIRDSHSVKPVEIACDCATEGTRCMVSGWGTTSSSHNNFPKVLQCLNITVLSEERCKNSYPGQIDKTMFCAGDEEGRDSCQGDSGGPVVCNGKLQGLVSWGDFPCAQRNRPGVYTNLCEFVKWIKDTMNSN

T4: mouse KLK14 (mouse, UniProt Q8CGR5 24-250)
T4 sequence: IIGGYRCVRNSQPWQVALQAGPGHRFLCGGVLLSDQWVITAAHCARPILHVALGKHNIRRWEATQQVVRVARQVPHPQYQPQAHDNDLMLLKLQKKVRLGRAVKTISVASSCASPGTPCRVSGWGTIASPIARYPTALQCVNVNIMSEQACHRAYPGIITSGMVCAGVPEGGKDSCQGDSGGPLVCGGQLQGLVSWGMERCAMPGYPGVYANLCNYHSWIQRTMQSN

T5: human KLK14 (human, UniProt Q9P0G3 25-251)
T5 sequence: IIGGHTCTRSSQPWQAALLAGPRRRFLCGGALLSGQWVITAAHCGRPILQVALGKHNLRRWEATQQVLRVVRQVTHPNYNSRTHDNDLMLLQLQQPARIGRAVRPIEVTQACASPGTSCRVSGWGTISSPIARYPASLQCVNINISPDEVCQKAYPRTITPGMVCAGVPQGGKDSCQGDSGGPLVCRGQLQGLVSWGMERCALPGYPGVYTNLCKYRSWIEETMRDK

B1: KLK5 inhibitory peptide K51034 (peptide)
chain: GPQFGLFSKYRTPNCGRYTTGGCNKEYEPVCGSDMSTYANECTLCMKIREGGHNIKIIRNGPCGG
notes: SPINK2 mutant peptide made in E. coli
B2: KLK5 inhibitory peptide K50062 (peptide)
chain: GPQFGLFSKYRTPNCQQYRELGCGRQYDPVCGSDMSTYANECTLCMKIREGGHNIKIIRNGPCGG
notes: as for B1
B3: KLK5/KLK7 inhibitory peptide K50031 (peptide)
chain: B1 chain with R17E, T19K, T20G, G21R, N24Y, K25Y, E26H, E28D
notes: as for B1
B4: KLK5/KLK7 inhibitory peptide K51057 (peptide)
chain: B1 chain with R17T, Y18M, T19Q, T20G, G21S, N24T, K25Y, E26H
notes: as for B1

target: T6, Plasmin (human, UniProt P00747); experiment: fluorogenic peptide substrate cleavage, 1 µM inhibitor
T6 construct: commercial enzyme (Sigma-Aldrich, P1867); 50 nM in the assay; substrate Boc-Val-Leu-Lys-MCA 100 µM; also called Human plasmin
Method: FIG. 3C includes graphs to evaluate the cross-reactivity of each inhibitory peptide with proteases, using the degradation of a peptide substrate as an index. For evaluating the Human plasmin inhibitory activity, plasmin (Sigma-Aldrich Co. LLC, P1867) with a final concentration of 50 nM and a substrate peptide Boc-Val-Leu-Lys-MCA (PEPTIDE […], INC., 3104-v) with a final concentration of 100 μM were used. For evaluating the Human thrombin inhibitory activity, thrombin (Sigma-Aldrich Co. LLC, T6884) with a final concentration of 1 nM and a substrate peptide Boc-Val-Pro-Arg-AMC (R&D Systems, Inc., ES011) with a final concentration of 100 μM were used. For evaluating the Human neutrophil elastase inhibitory activity, neutrophil elastase (Enzo Life Sciences, BML-SE284) with a final concentration of 0.00001 U/μL and a substrate peptide Suc (OMe)-Ala-Ala-Pro-Val-MCA (PEPTIDE […], INC., 3153-v) with a final concentration of 100 μM were used.
The specificities for other proteases were evaluated using the degradation of a substrate peptide as an index. […] Thereafter, 50 μL of a substrate diluted with an assay buffer was added thereto, and the fluorescence signal was measured using Enspire (PerkinElmer). […]

T6 sequence (P00747 97-810 limits assumed): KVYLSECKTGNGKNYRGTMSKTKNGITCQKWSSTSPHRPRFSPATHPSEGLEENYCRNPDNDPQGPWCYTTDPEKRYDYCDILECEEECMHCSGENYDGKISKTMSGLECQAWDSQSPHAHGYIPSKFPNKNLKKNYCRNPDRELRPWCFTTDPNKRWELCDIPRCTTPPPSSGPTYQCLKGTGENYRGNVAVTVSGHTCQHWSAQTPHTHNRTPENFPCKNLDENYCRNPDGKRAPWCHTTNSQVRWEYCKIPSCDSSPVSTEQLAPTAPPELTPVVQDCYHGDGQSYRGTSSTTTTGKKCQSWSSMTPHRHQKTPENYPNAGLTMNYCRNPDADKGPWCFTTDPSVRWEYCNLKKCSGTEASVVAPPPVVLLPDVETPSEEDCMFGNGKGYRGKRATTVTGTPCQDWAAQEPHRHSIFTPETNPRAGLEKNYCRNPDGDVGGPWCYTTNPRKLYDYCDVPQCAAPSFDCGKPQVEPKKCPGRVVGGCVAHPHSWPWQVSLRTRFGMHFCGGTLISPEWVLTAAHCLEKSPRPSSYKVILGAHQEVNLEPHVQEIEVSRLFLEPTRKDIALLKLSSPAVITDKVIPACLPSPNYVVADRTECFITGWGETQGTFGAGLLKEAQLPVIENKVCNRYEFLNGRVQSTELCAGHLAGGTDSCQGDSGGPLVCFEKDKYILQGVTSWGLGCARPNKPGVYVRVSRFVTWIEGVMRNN

binding result | Binder
binds | B1

target: T1, human KLK5; experiment: SPR, BIAcore T200; biotinylated KLK5 captured on chip, peptide as analyte; single cycle kinetics, 1:1 model
Method: In order to measure the binding affinity of the KLK5 inhibitory peptides, surface plasmon resonance analysis was conducted using BIAcore T 200 (GE healthcare). A complementary strand of DNA of a streptavidin conjugate was captured by hybridization on Sensor Chip CAP (GE healthcare) on which single-stranded DNA immobilized. Next, KLK5 biotinylated using EZ-Link NHS-PEG4-Biotin (Thermo Fisher Scientific) was captured at a flow rate of 10 μL/min to immobilize about 10 RU. Thereafter, the KLK5 inhibitory peptide, serially diluted 2-fold with HBS-EP (0.625 to 10 nM), was added thereto as an analyte at a flow rate of 30 μL/min. In the BIAcore T 200 Evaluation software (version 2.0), kon and koff were calculated by analysis using Single cycle kinetics in a simple one-to-one Langmuir binding model. The dissociation constant KD was calculated as a ratio of koff/kₒₙ. Further, multiple KLK5 inhibitory peptides were measured by regenerating Sensor Chip CAP using a Regeneration buffer attached to a Biotin CAPture Kit (GE healthcare) and repeatedly capturing biotinylated KLK5.

Kd [nM] | koff [s⁻¹] | kon [M⁻¹ s⁻¹] | Binder
0.068 | 3.5e-05 | 520000 | B1
0.0025 | 2.9e-06 | 1.2e+06 | B2
0.061 | 5e-05 | 820000 | B3
0.26 | 0.0015 | 6e+06 | B4

target: bChymotrypsin; experiment: fluorogenic peptide substrate cleavage, 1 µM inhibitor
Method: FIG. 3A includes graphs to evaluate the cross-reactivity of each inhibitory peptide with proteases, using the degradation of a peptide substrate as an index. For evaluating the Bovine trypsin inhibitory activity, trypsin (Pierce, 20233) with a final concentration of 5 nM and a substrate peptide Boc-Val-Pro-Arg-AMC (R&D Systems, Inc., ES011) with a final concentration of 100 μM were used. For evaluating the Human trypsin inhibitory activity, trypsin (Sigma-Aldrich Co. LLC, T6424) with a final concentration of 1 nM and a substrate peptide Boc-Val-Pro-Arg-AMC (R&D Systems, Inc., ES011) with a final concentration of 100 μM were used. For evaluating the Bovine α-chymotrypsin inhibitory activity, chymotrypsin (Worthington Biochemical Corporation, LS001434) with a final concentration of 10 nM and a substrate peptide Suc-Leu-Leu-Val-Tyr-MCA (PEPTIDE […], INC., 3120-v) with a final concentration of 100 μM were used.
(§1) The specificities for other proteases were evaluated using the degradation of a substrate peptide as an index. As in the method described in (3-1), 25 μL each of a protease and a sample diluted with an assay buffer were mixed (to a final concentration of sample of 1 μM), followed by a reaction at 37° C. for 20 minutes. Thereafter, 50 μL of a substrate diluted with an assay buffer was added thereto, and the fluorescence signal was measured using Enspire (PerkinElmer). An assay buffer (50 mM Tris, 150 mM NaCl, pH 8.0) was used for the evaluation of the protease activity, and a PROTEOSAVE® SS96F black plate (Sumitomo Bakelite Co., Ltd.) was used for the reaction and the measurement. The combinations of the protease and the substrate used for the evaluation of the specificity were as follows.

binding result | Binder
binds | B3
binds | B4

target: T7, KLK4 (human, UniProt Q9Y5K2); experiment: as above
T7 construct: commercial enzyme (R&D Systems, 1719-SE); 1 µg/mL in the assay; substrate Boc-Val-Pro-Arg-AMC 100 µM; also called Human KLK4; hKLK4
Method: FIG. 3F includes graphs to evaluate the cross-reactivity of each inhibitory peptide with proteases, using the degradation of a peptide substrate as an index. For evaluating the Human KLK1 inhibitory activity, hKLK1 (R&D Systems, Inc., 2337-SE) with a final concentration of 0.1 μg/mL and a substrate peptide Pro-Phe-Arg-MCA (PEPTIDE […], INC., 3096-v) with a final concentration of 100 μM were used. For evaluating the Human KLK2 inhibitory activity, hKLK2 (R&D Systems, Inc., 4104-SE) with a final concentration of 2 μg/mL and a substrate peptide Pro-Phe-Arg-MCA (PEPTIDE […], INC., 3096-v) with a final concentration of 100 μM were used. For evaluating the Human KLK4 inhibitory activity, hKLK4 (R&D Systems, Inc., 1719-SE) with a final concentration of 1 μg/mL and a substrate peptide Boc-Val-Pro-Arg-AMC (R&D Systems, Inc., ES011) with a final concentration of 100 μM were used.
as §1

T7 sequence (Q9Y5K2 31-254 limits assumed): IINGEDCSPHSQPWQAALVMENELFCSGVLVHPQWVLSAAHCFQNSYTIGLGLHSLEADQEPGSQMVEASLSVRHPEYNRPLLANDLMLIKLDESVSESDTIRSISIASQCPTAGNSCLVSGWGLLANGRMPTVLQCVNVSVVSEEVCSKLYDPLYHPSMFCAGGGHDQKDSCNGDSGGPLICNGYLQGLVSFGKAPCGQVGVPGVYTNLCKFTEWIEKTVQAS

binding result | Binder
binds | B1
binds | B2

target: T2, KLK8; experiment: as above
Method: FIG. 3G includes graphs to evaluate the cross-reactivity of each inhibitory peptide with proteases, using the degradation of a peptide substrate as an index. For evaluating the Human KLK7 inhibitory activity, hKLK7 with a final concentration of 1 μg/mL and a substrate peptide Mca-Arg-Pro-Lys-Pro-Val-Glu-Nval-Trp-Arg-Lys (Dnp)-NH₂ (R&D Systems, Inc., ES002) with a final concentration of 20 μM were used. For evaluating the Human KLK8 inhibitory activity, hKLK8 (UniProt: 060259, prepared by the inventors) with a final concentration of 5 nM and a substrate peptide Boc-Val-Pro-Arg-AMC (R&D Systems, Inc., ES011) with a final concentration of 100 μM were used. For evaluating the Human KLK12 inhibitory activity, hKLK12 (R&D Systems, Inc., 3095-SE) with a final concentration of 0.1 μg/mL and a substrate peptide Boc-Val-Pro-Arg-AMC (R&D Systems, Inc., ES011) with a final concentration of 100 μM were used.
as §1

binding result | Binder
binds | B2

target: mouse KLK7 (mouse, UniProt Q91VE3 26-249); experiment: cell-based or functional assay
Sequence (Q91VE3 26-249): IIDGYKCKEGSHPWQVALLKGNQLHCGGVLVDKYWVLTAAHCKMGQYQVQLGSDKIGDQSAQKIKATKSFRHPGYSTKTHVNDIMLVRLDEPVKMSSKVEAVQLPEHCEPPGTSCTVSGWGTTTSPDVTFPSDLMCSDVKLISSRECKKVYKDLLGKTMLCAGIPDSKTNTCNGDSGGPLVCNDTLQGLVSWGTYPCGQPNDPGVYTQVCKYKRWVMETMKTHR

IC50(nM) for mKLK7 [nM] | Binder
> 1000 | B1
> 1000 | B2
4 | B3
27 | B4

Target: T3, mouse KLK5
Experiment: cell-based or functional assay

IC50(nM) for mKLK5 [nM] | Binder
54 | B1
10 | B2
40 | B3
149 | B4

target: T4, mouse KLK14; experiment: cell-based or functional assay

IC50(nM) for mKLK14 [nM] | Binder
> 1000 | B1
> 1000 | B2
244 | B3
437 | B4

target: T1, human KLK5; experiment: cell-based or functional assay

IC50(nM) for hKLK5 [nM] | Binder
6.4 | B1
7.5 | B2
5.4 | B3
12 | B4

target: human KLK7 (human, UniProt P49862 30-253); experiment: cell-based or functional assay
Sequence (P49862 30-253): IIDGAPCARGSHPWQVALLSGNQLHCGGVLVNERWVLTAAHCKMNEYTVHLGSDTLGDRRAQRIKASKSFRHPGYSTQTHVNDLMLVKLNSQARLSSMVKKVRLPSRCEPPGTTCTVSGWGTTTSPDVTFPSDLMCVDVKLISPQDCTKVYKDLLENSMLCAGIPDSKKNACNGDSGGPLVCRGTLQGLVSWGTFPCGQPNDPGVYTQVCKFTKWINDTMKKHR

IC50(nM) for hKLK7 [nM] | Binder
13 | B3
24 | B4

target: T5, human KLK14; experiment: cell-based or functional assay

IC50(nM) for hKLK14 [nM] | Binder
499 | B2
> 1000 | B3
> 1000 | B4
